Experimental data published in PMC10269683.

Target: CcpA (Streptococcus pneumoniae D39) (UniProt A0A0H2ZQ65)
Test: EMSA
Conditions: EMSA: 10 mM Tris-HCl pH 7.4, 1 mM DTT, 1 mM EDTA, 50 mM KCl, 5% glycerol, 50 ug/mL BSA, 0.05% NP-40, 20 min 37 C; footprinting binding 30 min 25 C

“GCTACAAACTGTTCCAATTTAACTGTGTTTTTCATAATAAAATCTCCTAAAATGTTTTTTCTTGTAAGCTAACTTACAAAAACCATTATACAAAATGGAATTTCGTTTTAGATAAAATTCTCTCAACTGTCATTTTTTTCTCCCAAAGTGTACTTTTTTAAGAAAAAAGCCGGGAAAATTCCCAGCTTTGCTATTATATTGATCCCAGCAGGATTCGAACCTGCGACCGTTCGCTTAGAAGGCGAATGCTCTATC (double strand) [P240 (PcomCDE)]” was tested, and the binding was “binds”.
